# From patent US20200024360A1 (Janssen / Centocor, published 2020)
# Legend:
# [1] = target: T1, human PSMA (prostate specific membrane antigen), full length (human, UniProt Q04609 1-750); assay: flow cytometry, bispecific antibody titrated on LNCaP cells (human PSMA), anti-human kappa light chain PE
# T1 construct: On LNCaP or C4-2B cells (endogenous) or transduced HEK293F cells; also called FOLH1_HUMAN; hPSMA
# Description: (§1) PSMA×CD3 bispecific antibodies were tested for binding to PSMA positive cell lines LNCAP, human PSMA-HEK, Chimpanzee-PSMA-HEK and Cynomolgous monkey PSMA-HEK. To assess the binding capabilities of the PSMA bispecific antibodies, the cell-binding assay was utilized (described previously). Briefly, PSMA expressing tumor cells are bound by bispecific antibodies at known concentrations and the bound antibody is detected by an anti-human kappa light chain PE conjugated detection reagent (Invitrogen). The Mean Fluorescents Intensity (MFI) is the measure of bound bispecific antibody. The MFI is converted to a relative EC₅₀. EC₅₀ is a commonly used dose-response curve, where the half maximal effective concentration or the EC₅₀ point is defined as the inflection point of the curve. EC₅₀ s were determined by measuring cell bound bispecific and known concentrations. […] The dose response curves were then diluted down to that of background or no bispecific binding. The inflection point of this curve reflects the EC₅₀ point. The calculated EC₅₀ is determined by taking the ug/ml amount of bispecific antibody at the EC₅₀ point and converting it to a molarity value based on the MW of the bispecific antibody. Bispecific antibodies were normalized for protein concentration and then incubated with the same number of cells expressing either human or cyno PSMA. The MFI at each concentration was collected by flow cytometry and plotted as a function of concentration. Data was transformed via log 10 and then plotted. Nonlinear regression of binding curves was done to determine EC₅₀ s. These relative values were used for ranking PSMA binding to target cells.
# [2] = target: T1, human PSMA (prostate specific membrane …); assay: FACS, whole cell binding, LNCaP
# Description: as §1
# [3] = target: T2, chimpanzee PSMA, full length (Pan troglodytes, UniProt Q04609 1-750 (human entry)); assay: FACS, whole cell binding, chimp PSMA HEK
# T2 construct: On transfected HEK293F cells; also called chimp PSMA; H2Q3K5_PANTR
# T2 chain: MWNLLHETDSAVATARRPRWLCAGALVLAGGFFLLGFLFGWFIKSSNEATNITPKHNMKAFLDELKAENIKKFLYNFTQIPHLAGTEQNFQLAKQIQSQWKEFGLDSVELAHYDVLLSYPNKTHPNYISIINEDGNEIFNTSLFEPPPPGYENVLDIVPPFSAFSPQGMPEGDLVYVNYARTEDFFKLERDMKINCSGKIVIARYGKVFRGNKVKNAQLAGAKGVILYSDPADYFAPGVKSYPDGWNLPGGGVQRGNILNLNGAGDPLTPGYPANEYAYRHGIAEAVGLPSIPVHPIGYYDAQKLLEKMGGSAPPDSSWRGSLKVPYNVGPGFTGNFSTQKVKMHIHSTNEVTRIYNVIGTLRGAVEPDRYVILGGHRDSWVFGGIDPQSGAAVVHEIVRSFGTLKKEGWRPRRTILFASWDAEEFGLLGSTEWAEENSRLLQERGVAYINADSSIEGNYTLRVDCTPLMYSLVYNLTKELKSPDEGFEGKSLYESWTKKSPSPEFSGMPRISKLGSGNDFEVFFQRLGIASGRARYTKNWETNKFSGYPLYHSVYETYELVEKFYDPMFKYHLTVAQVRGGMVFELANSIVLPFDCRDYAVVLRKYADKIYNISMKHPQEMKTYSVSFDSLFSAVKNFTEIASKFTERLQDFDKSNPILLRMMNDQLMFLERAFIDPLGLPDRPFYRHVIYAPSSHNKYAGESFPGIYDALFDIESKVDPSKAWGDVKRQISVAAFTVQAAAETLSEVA
# Description: as §1
# [4] = target: T3, Cynomolgous monkey PSMA, full length (Macaca fascicularis, UniProt Q04609 1-750 (human entry)); assay: FACS, whole cell binding, cyno PSMA HEK
# T3 construct: On transfected HEK293F cells; also called cyno PSMA; EHH56646.1
# T3 chain: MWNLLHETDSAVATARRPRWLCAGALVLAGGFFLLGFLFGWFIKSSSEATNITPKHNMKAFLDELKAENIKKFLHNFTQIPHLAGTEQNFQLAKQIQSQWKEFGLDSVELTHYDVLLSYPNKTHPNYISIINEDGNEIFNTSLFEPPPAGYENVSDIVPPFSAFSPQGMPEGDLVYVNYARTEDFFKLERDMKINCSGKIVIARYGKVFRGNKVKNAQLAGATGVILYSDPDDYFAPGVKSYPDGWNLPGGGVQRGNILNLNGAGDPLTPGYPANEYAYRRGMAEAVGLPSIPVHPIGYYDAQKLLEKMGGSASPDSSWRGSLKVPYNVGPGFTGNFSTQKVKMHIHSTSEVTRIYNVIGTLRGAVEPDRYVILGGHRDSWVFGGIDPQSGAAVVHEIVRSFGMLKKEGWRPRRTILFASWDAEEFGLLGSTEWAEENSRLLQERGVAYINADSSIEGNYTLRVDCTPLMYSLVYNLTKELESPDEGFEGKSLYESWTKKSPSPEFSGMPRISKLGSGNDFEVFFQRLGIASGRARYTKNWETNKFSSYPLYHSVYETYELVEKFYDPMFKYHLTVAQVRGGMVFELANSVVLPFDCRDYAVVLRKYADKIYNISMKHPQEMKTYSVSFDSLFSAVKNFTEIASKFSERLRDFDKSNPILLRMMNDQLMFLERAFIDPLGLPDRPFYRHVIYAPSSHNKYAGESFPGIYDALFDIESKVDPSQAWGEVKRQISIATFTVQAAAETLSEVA
# Description: as §1
# [5] = target: T3, Cynomolgous monkey PSMA, full length; assay: FACS, whole cell binding, cyno PSMA HEK; calculated EC50
# Description: as §1
# [6] = target: T1, human PSMA (prostate specific membrane …); assay: FACS, whole cell binding, LNCaP; calculated EC50
# Description: as §1
# [7] = target: T2, chimpanzee PSMA, full length; assay: FACS, whole cell binding, chimp PSMA HEK; calculated EC50
# Description: as §1
binder,measurement,setting,value
"PS3B9 (M84) (bispecific antibody, human IgG4 S228P, kappa, lambda, F234A L235A, also called PSMB127 x CD3B217) heavy chain, PSMA arm (PSMB127): not shown light chain, PSMA arm (PSMB127): not shown heavy chain, CD3 arm (CD3B217): EVQLLESGGGLVQPGGSLRLSCAASGFTFNTYAMNWVRQAPGKGLEWVARIRSKYNNYATYYADSVKGRFTISRDNSKNTLYLQMNSLRAEDTAVYYCVKHGNFGNSYVSWFAYWGQGTLVTVSSASTKGPSVFPLAPCSRSTSESTAALGCLVKDYFPEPVTVSWNSGALTSGVHTFPAVLQSSGLYSLSSVVTVPSSSLGTKTYTCNVDHKPSNTKVDKRVESKYGPPCPPCPAPEAAGGPSVFLFPPKPKDTLMISRTPEVTCVVVDVSQEDPEVQFNWYVDGVEVHNAKTKPREEQFNSTYRVVSVLTVLHQDWLNGKEYKCKVSNKGLPSSIEKTISKAKGQPREPQVYTLPPSQEEMTKNQVSLTCLVKGFYPSDIAVEWESNGQPENNYKTTPPVLDSDGSFLLYSKLTVDKSRWQEGNVFSCSVMHEALHNHYTQKSLSLSLGK light chain, CD3 arm (CD3B217): QAVVTQEPSLTVSPGGTVTLTCRSSTGAVTTSNYANWVQQKPGQAPRGLIGGTNKRAPGTPARFSGSLLGGKAALTLSGAQPEDEAEYYCALWYSNLWVFGGGTKLTVLGQPKAAPSVTLFPPSSEELQANKATLVCLISDFYPGAVTVAWKADSSPVKAGVETTTPSKQSNNKYAASSYLSLTPEQWKSHRSYSCQVTHEGSTVEKTVAPTECS",EC50 (read off the curve),[1],~2 µg/mL
"PS3B26 (bispecific antibody, human IgG4 S228P, kappa, lambda, F234A L235A, IgG4 PAA; PSMA arm chains first, then CD3 arm (F405L, R409K); also called PSMB126 x CD3B219) heavy 1: not shown light 1: not shown heavy 2: EVQLVESGGGLVQPGGSLRLSCAASGFTFNTYAMNWVRQAPGKGLEWVARIRSKYNNYATYYAASVKGRFTISRDDSKNSLYLQMNSLKTEDTAVYYCARHGNFGNSYVSWFAYWGQGTLVTVSSASTKGPSVFPLAPCSRSTSESTAALGCLVKDYFPEPVTVSWNSGALTSGVHTFPAVLQSSGLYSLSSVVTVPSSSLGTKTYTCNVDHKPSNTKVDKRVESKYGPPCPPCPAPEAAGGPSVFLFPPKPKDTLMISRTPEVTCVVVDVSQEDPEVQFNWYVDGVEVHNAKTKPREEQFNSTYRVVSVLTVLHQDWLNGKEYKCKVSNKGLPSSIEKTISKAKGQPREPQVYTLPPSQEEMTKNQVSLTCLVKGFYPSDIAVEWESNGQPENNYKTTPPVLDSDGSFLLYSKLTVDKSRWQEGNVFSCSVMHEALHNHYTQKSLSLSLGK light 2: QTVVTQEPSLTVSPGGTVTLTCRSSTGAVTTSNYANWVQQKPGQAPRGLIGGTNKRAPGTPARFSGSLLGGKAALTLSGVQPEDEAEYYCALWYSNLWVFGGGTKLTVLGQPKAAPSVTLFPPSSEELQANKATLVCLISDFYPGAVTVAWKADSSPVKAGVETTTPSKQSNNKYAASSYLSLTPEQWKSHRSYSCQVTHEGSTVEKTVAPTECS",EC50,[2],0.0715 µg/mL
same,EC50,[3],0.05 µg/mL
same,EC50,[4],0.371 µg/mL
same,EC50,[5],2.6 nM
same,EC50,[6],0.5 nM
same,EC50,[7],0.34 nM
"PS3B4 (M52) (bispecific antibody, human IgG4 S228P, kappa, lambda, F234A L235A, also called PSMB122 x CD3B217) heavy chain, PSMA arm (PSMB122): not shown light chain, PSMA arm (PSMB122): DIQMTQSPSSLSASVGDRVTITCRASQSIDRWLNWYQQKPGKAPKLLIYAASSLQSGVPSRFSGSGSGTDFTLTISSLQPEDFATYYCQQSPRYPLTFGQGTKVEIKRTVAAPSVFIFPPSDEQLKSGTASVVCLLNNFYPREAKVQWKVDNALQSGNSQESVTEQDSKDSTYSLSSTLTLSKADYEKHKVYACEVTHQGLSSPVTKSFNRGEC heavy chain, CD3 arm (CD3B217): EVQLLESGGGLVQPGGSLRLSCAASGFTFNTYAMNWVRQAPGKGLEWVARIRSKYNNYATYYADSVKGRFTISRDNSKNTLYLQMNSLRAEDTAVYYCVKHGNFGNSYVSWFAYWGQGTLVTVSSASTKGPSVFPLAPCSRSTSESTAALGCLVKDYFPEPVTVSWNSGALTSGVHTFPAVLQSSGLYSLSSVVTVPSSSLGTKTYTCNVDHKPSNTKVDKRVESKYGPPCPPCPAPEAAGGPSVFLFPPKPKDTLMISRTPEVTCVVVDVSQEDPEVQFNWYVDGVEVHNAKTKPREEQFNSTYRVVSVLTVLHQDWLNGKEYKCKVSNKGLPSSIEKTISKAKGQPREPQVYTLPPSQEEMTKNQVSLTCLVKGFYPSDIAVEWESNGQPENNYKTTPPVLDSDGSFLLYSKLTVDKSRWQEGNVFSCSVMHEALHNHYTQKSLSLSLGK light chain, CD3 arm (CD3B217): QAVVTQEPSLTVSPGGTVTLTCRSSTGAVTTSNYANWVQQKPGQAPRGLIGGTNKRAPGTPARFSGSLLGGKAALTLSGAQPEDEAEYYCALWYSNLWVFGGGTKLTVLGQPKAAPSVTLFPPSSEELQANKATLVCLISDFYPGAVTVAWKADSSPVKAGVETTTPSKQSNNKYAASSYLSLTPEQWKSHRSYSCQVTHEGSTVEKTVAPTECS",EC50 (read off the curve),[1],~2 µg/mL
"PS3B8 (M81) (bispecific antibody, human IgG4 S228P, kappa, lambda, F234A L235A, also called PSMB126 x CD3B217) heavy chain, PSMA arm (PSMB126): not shown light chain, PSMA arm (PSMB126): not shown heavy chain, CD3 arm (CD3B217): EVQLLESGGGLVQPGGSLRLSCAASGFTFNTYAMNWVRQAPGKGLEWVARIRSKYNNYATYYADSVKGRFTISRDNSKNTLYLQMNSLRAEDTAVYYCVKHGNFGNSYVSWFAYWGQGTLVTVSSASTKGPSVFPLAPCSRSTSESTAALGCLVKDYFPEPVTVSWNSGALTSGVHTFPAVLQSSGLYSLSSVVTVPSSSLGTKTYTCNVDHKPSNTKVDKRVESKYGPPCPPCPAPEAAGGPSVFLFPPKPKDTLMISRTPEVTCVVVDVSQEDPEVQFNWYVDGVEVHNAKTKPREEQFNSTYRVVSVLTVLHQDWLNGKEYKCKVSNKGLPSSIEKTISKAKGQPREPQVYTLPPSQEEMTKNQVSLTCLVKGFYPSDIAVEWESNGQPENNYKTTPPVLDSDGSFLLYSKLTVDKSRWQEGNVFSCSVMHEALHNHYTQKSLSLSLGK light chain, CD3 arm (CD3B217): QAVVTQEPSLTVSPGGTVTLTCRSSTGAVTTSNYANWVQQKPGQAPRGLIGGTNKRAPGTPARFSGSLLGGKAALTLSGAQPEDEAEYYCALWYSNLWVFGGGTKLTVLGQPKAAPSVTLFPPSSEELQANKATLVCLISDFYPGAVTVAWKADSSPVKAGVETTTPSKQSNNKYAASSYLSLTPEQWKSHRSYSCQVTHEGSTVEKTVAPTECS",EC50 (read off the curve),[1],~0.1 µg/mL
